B1: A258 F: Solution of human Zcyto7 expressed in BHK cells, 0.603 mg/ml of PBS at pH 6.0 (protein, UniProt Q9UHF5 21-180, looked up)
Interleukin-17B: QPRSPKSKRKGQGRPGPLAPGPHQVPLDLVSRMKPYARMEEYERNIEEMVAQLRNSSELAQRKCEVNLQLWMSNKRSLSPWGYSINHDPSRIPVDLPEARCLCLGCVNPFTMQEDRSMVSVPVFSQVPVRRRLCPPPPRTGPCRQRAVMETIAVGCTCIF
B2: A258 G: Solution of human Zcyto7 expressed in BHK cells, 0.089 mg/ml of PBS+0.1% BSA at pH 6.0 (protein, UniProt Q9UHF5 21-180, looked up)
Interleukin-17B: B1 Interleukin-17B
B3: A275 F: Solution of murine Zcyto7 expressed in BHK cells, 1 mg/ml of PBS at pH 6.0 (protein, UniProt Q9QXT6 23-180, looked up)
Interleukin-17B: RNTKGKRKGQGRPSPLAPGPHQVPLDLVSRVKPYARMEEYERNLGEMVAQLRNSSEPAKKKCEVNLQLWLSNKRSLSPWGYSINHDPSRIPADLPEARCLCLGCVNPFTMQEDRSMVSVPVFSQVPVRRRLCPQPPRPGPCRQRVVMETIAVGCTCIF

How the values were obtained:
[1] = system: primary Schwann cells; experiment: MBP induction in pure Schwann cell cultures (Western blot, densitometry); type: cell-based, rat; details: for Mean MBP induction (as percent of progesterone induction): mean ± SD; for MBP accumulation (in words): in the absence of progesterone pretreatment
Description: Primary Schwann cell cultures and dorsal root ganglia (DRG)-Schwann cell co-cultures were established. Rat primary Schwann cells were isolated as described by Einheber et al., J. Cell Biol. 123:1223-1236 (1994). Schwann cells were grown in 100 mm poly-L-lysine coated plates in Dulbecco's modified Eagles medium (DMEM) supplemented with 10% fetal bovine serum (FBS), pituitary extract (1 mg/ml) and 10 μM forskolin; up to 80-90% confluency.
The effect of Zcyto7 was tested in pure Schwann cell culture and in a co-culture of DRG and Schwann cells. Primary Schwann cells were grown to 80-90% confluency in 100 mm plates as described above. 12 h before treatment media was changed to 10 ml of N2 (defined medium) with or without 1 μM progesterone. The Zcyto7 solutions were added as 1.1 ml of 10×solution in N2 media, and cells were incubated for 48 hours (h). Cells were washed once with Hanks balanced salt solution (HBSS). The cell suspension was frozen on dry ice, thawed, pelleted and resuspended in 100 μl of lysis buffer, 125 mM tris (hydroxymethyl) aminomethane HCl (Tris HCl) pH7.0, 15% sucrose, 4% sodium dodecyl sulfate (SDS), 10 mM ethylenediaminetetraacetic acid (EDTA). Lysates were boiled for 5 minutes (min) on a water bath and cooled on ice. The protein concentration was determined using 4 μl in a BioRad BCA assay. Each sample was then supplemented with dithiothreitol (DTT) to a final concentration of 10 mM phenylmethylsulfonyl fluoride (PMSF)—to 2 mM, pepstatin and leupeptin—to 10 μg/ml.
60 μg of protein from each sample were separated on 4-12% Tris-Glycin NOVEX gels at 125 V constant for 1.5 h. Each gel contained vehicle control, vehicle supplemented with progesterone control, and randomly chosen samples from treatment groups. Transfer to poly (vinylidine difluoride) (PVFD) membrane was carried out according to the NOVEX electrotransfer protocol, at 25 V, for 40 min. Membranes were rinsed with tris buffered saline (TBS) for 3 min, and blocked with TBS/0.1% TWEEN-20/2% BSA for 1 h. Membranes were then incubated with 1:1000 dilution of anti-MBP mouse monoclonal IgG (Boehringer, Mannheim) in TBS/0.1% TWEEN-20, 0.5% BSA overnight, at 4° C. After washing 4 times for 30 min with TBS/0.1% TWEEN-20, membranes were incubated with anti-mouse horseradish peroxidase conjugate (1:20,000 dilution in TBS/0.1% TWEEN-20, incubated with SUPERSIGNAL chemiluminescent HRP substrate (Pierce Chemical Co., Rockford, Ill.) and exposed to Kodak X-Ray film for 15-20 min.
Density of myelin basic protein (MBP) bands was measured on LYNX Densitometer (Applied imaging) with ILLUMA System and expressed as percent progesterone-induced control MBP.
In experiment 1, the effect of the 4 different solutions of Zcyto7 on MBP accumulation was evaluated in pure Schwann cell cultures, with and without progesterone pretreatment. Solution A275F was evaluated in experiment 1 at 1 ng/ml, 10 ng/ml, 100 ng/ml and 1 μg/ml.
Four controls were included in each experiment: test vehicle alone, vehicle supplemented with progesterone, vehicle supplemented with IL-17, and vehicle supplemented with progesterone and IL-17 [See J. Immunol, 150:5445-5456 (1993)]. Three replicates were set up per each condition.

[2] = system: DRG-Schwann cell co-cultures; experiment: Production of myelin (MBP immunofluorescence signal density) in DRG-Schwann cell co-cultures; type: cell-based, rat; details: DRG-Schwann cell co-culture, 3.5 weeks
Description: Dissociated neuronal cultures from normal rats were established as described by Kleitman et al., Tissue culture methods for the study of myelination, in Culturing Nerve Cells, Banker and Goslin, Eds, pp. 338-378(MIT Press, Cambridge, Mass., 1992). Briefly, DRG were dissected out from the rats, treated with 0.25% trypsin, mechanically dissociated, washed, and resuspended in L15 medium with 10% fetal calf serum. The neurons were plated onto 12-mm glass coverslips coated with ammoniated rat tail collagen (Biomedical Technologies, Inc.) for microscopic evaluation. Starting one day following the dissection, cultures were treated over a 2-week period with three cycles of 5-fluorodeoxyuridine and uridine (both at 10 μM) in standard medium to assure a pure neuronal population. Standard medium consisted of minimum essential medium (MEM) supplemented with 10% FBS, 2 mM glutamine, 0.4% glucose, and 50 ng/m β-nerve growth factor (β-NGB).
Myelinating co-cultures were established by seeding the purified neurons with rat primary Schwann cells as described Einheber, et al., id.
After establishing the myelinating co-cultures, Schwann cells were allowed to proliferate for one week attached to the neurons. The medium was then changed to 15% and 50 μg/ml ascorbate was added to promote basal lamina formation and to initiate myelination. The effect of the Zcyto7 was evaluated for 3.5 weeks in the presence of ascorbate, with the medium changed every two days. Cultures were then fixed in 3.7% formaldehyde for 10 minutes and made permeable in 100% methanol for 15 minutes at −20° C. Following with PBS having 3% BSA, the samples were incubated with mouse anti-MBP antibody (Boehringer-Mannheim) overnight, washed and incubated with Cy3-labeled anti-mouse IgG. Samples were washed, mounted in VECTASHIELD and examined by epifluorescence with a Zeiss AXIOSKOP microscope.
Myelin production was quantitatively and qualitatively evaluated, and myelin density was determined for each of the five replicates per condition. Six representative regions in each sample were captured using a low-level light COHUE digital camera, and the density of fluorescent signal determined using the National Institutes of Health (NIH) Scion Image. The mean and standard deviation of myelin density was calculated for each group and converted to a percentage by dividing by the density seen in the appropriate control culture. Morphometric measurements were carried out using double blind analysis.
Solution A258F was chosen on the basis of the results of experiment 1 was evaluated in experiment 2 for myelin formation in DRG-Schwann co-cultures. […]

[3] = system: primary rat Schwann cells; experiment: Induction of protein zero expression in Schwann cells (Western blot); type: cell-based; details: N2 medium + 1 μM progesterone
Description: Primary Schwann cells were prepared as described above using 1-day old CD rat neonates. Schwann cells were grown in DMEM, 10% fetal bovine serum (FBS), plus bovine pituitary extract (PEX) at 20 μg/ml and Forskolin at 2μM. The cells were weaned down to a low serum medium (“Li” medium with 1% FBS added to it). Li medium was comprised of DMEM/F12, 10 μg/ml tranferrin, 5 μg/ml insulin, 2 nM progesterone, 2 μM Forskolin, 20 μg/ml PEX, and 20 ng/ml Heregulin-beta-1 (R & D Systems).
The Schwann cells were grown to confluency in the low serum growth medium on poly-L-lysine-coated 10 cm tissue culture dishes. The cell medium was changed to N2 medium+1 μM progesterone with either Forskolin (Calbiochem) (10 μM and 25 μM) or 100 ng/ml of human Zcyto7. Control medium was Schwann cells in N2+1 μM progesterone for the whole time. Cells were harvested and placed in lysis buffer (125 mM Tris HCl, pH 7.0, 15% sucrose, 4% SDS, 10 mM EDTA, plus added Roche Complete-EDTA-free, protease inhibitor cocktail).
Protein concentrations of cell lysates were determined by Pierce BCA protein assay (Pierce Chemical Co., Rockford, Ill.). Forty micrograms of each cell lysate sample was run on a 4-12% Tris-Glycine gel (Novex) at 125 V for 1 hour 30 minutes, and transferred onto a PVDF membrane in a Hoeffer unit a 550 mAmps for 1 hour. Mouse monoclonal antibody to protein zero was used at 1:1000 dilution (1 μg/am final concentration) to probe the blot. A Vectastain biotin/streptavidin-HRP 2nd antibody system was used for amplication. The blot was developed with Pierce SuperSignal West Pico chemiluminescent substrate and scanned on a Boehringer-Mannheim Lumi-Imager.

[4] = 1 ng/ml, without progesterone, pure Schwann cells, 48 h
[5] = 10 ng/ml, without progesterone, pure Schwann cells, 48 h
[6] = 100 ng/ml, without progesterone, pure Schwann cells, 48 h
[7] = 1 μg/ml, without progesterone, pure Schwann cells, 48 h
[8] = Prog + 1 ng/ml, pure Schwann cells, 48 h
[9] = Prog + 10 ng/ml, pure Schwann cells, 48 h
[10] = Prog + 100 ng/ml, pure Schwann cells, 48 h
[11] = Prog + 1 μg/ml, pure Schwann cells, 48 h

| Molecule | MBP Signal Density (mean ± SD) ([2]; Ascorbic acid (AA) + 10 ng/ml) | Mean MBP induction (as percent of progesterone induction) [1, 4] | Mean MBP induction (as percent of progesterone induction) [1, 5] | MBP accumulation (in words) ([1]; 100 ng/ml) | Mean MBP induction (as percent of progesterone induction) [1, 6] | Mean MBP induction (as percent of progesterone induction) [1, 7] | Mean MBP induction (as percent of progesterone induction) [1, 8] | Mean MBP induction (as percent of progesterone induction) [1, 9] | Mean MBP induction (as percent of progesterone induction) [1, 10] | Mean MBP induction (as percent of progesterone induction) [1, 11] | further results |
| --- | --- | --- | --- | --- | --- | --- | --- | --- | --- | --- | --- |
| IL-17: Interleukin-17; solution at 50 μg/ml of PBS, pH 7.0; control in the experiments | 11.65 ± 0.78 | – | – | – | – | – | – | – | – | – | Mean MBP induction (as percent of progesterone induction) ([1]; Prog + IL-17 control, in column A258 F): 199.30 ± 23.21% of progesterone induction; Mean MBP induction (as percent of progesterone induction) ([1]; Prog + IL-17 control, in column A275 F): 214.50 ± 103.80% of progesterone induction; Mean MBP induction (as percent of progesterone induction) ([1]; Prog + IL-17 control, in column A311 F): 180.60 ± 123.80% of progesterone induction |
| C=C[C@@]1(C)CC(=O)[C@]2(O)[C@@]3(C)[C@@H](O)CCC(C)(C)[C@@H]3[C@H](O)[C@H](OC(C)=O)[C@@]2(C)O1 [Forskolin] | – | – | – | – | – | – | – | – | – | – | Relative percentage of P zero protein (media control = 100%) ([3]; 10 μM): 199%; Relative percentage of P zero protein (media control = 100%) ([3]; 25 μM): 30% |
| B1 | 47.74 ± 23.60 | 81.47 ± 7.75% of progesterone induction | 41.59 ± 32.29% of progesterone induction | significantly induced MBP accumulation | 117.00 ± 42.89% of progesterone induction | 152.80 ± 27.95% of progesterone induction | 117.00 ± 15.83% of progesterone induction | 187.20 ± 18.43% of progesterone induction | 265.90 ± 32.09% of progesterone induction | 174.30 ± 25.59% of progesterone induction | Concentration of maximal effect on MBP accumulation ([1]; pure Schwann cell cultures): 100 ng/mL; MBP induction (in words) ([1]; pure Schwann cell cultures): induced MBP accumulation in dose-dependent manner; MBP Signal Density (mean ± SD) ([2]; Ascorbic acid (AA) + 1 ng/ml): 20.04 ± 8.55; MBP Signal Density (mean ± SD) ([2]; Ascorbic acid (AA) + 100 ng/ml): 74.74 ± 19.22 |
| B2 | – | – | – | significantly induced MBP accumulation | 210 ± 115.20% of progesterone induction | – | – | – | 152 ± 19.38% of progesterone induction | – | – |
| B3 | – | 102.40 ± 21.33% of progesterone induction | 123.40 ± 50.34% of progesterone induction | significantly induced MBP accumulation | 210.60 ± 9708% of progesterone induction | 170.90 ± 49.63% of progesterone induction | 48.77 ± 45.44% of progesterone induction | 121.00 ± 78.16% of progesterone induction | 278.00 ± 95.43% of progesterone induction | 280.80 ± 62.95% of progesterone induction | – |
